{
  "source": "paper PMC9482650",
  "about": "“Quantitative fragmentomics allow affinity mapping of interactomes” (Nature Communications, 2022)",
  "binders": {"B1": {"name": "CRHR1, P34998 (peptide)", "chain": "FHSIKQSTAV"}},
  "experiment_in_all_cases": "holdup assay",
  "parameters_in_all_cases": "key: below the threshold = too weak to quantify, mostly under pKd 3.1 to 4",
  "conditions_in_all_cases": "plain residues with an end cap or a label only (N-terminal biotin on a linker: ado-ado)",
  "key": {"[1]": {"target": "T1, APBA1_2, Q02410", "T1 sequence (Q02410 742-832, limits assumed, looked up)": "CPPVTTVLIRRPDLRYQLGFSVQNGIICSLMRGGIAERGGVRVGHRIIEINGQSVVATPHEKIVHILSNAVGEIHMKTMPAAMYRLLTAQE"}, "[2]": {"target": "ARHGEF12, Q9NZN5-2", "sequence (Q9NZN5 other isoform, or with tags, fused parts or gaps)": "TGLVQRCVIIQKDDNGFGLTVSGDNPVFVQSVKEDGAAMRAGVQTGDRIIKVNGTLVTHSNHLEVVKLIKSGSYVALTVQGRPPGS"}, "[3]": {"target": "MAGI2_3, Q86UL8", "sequence (Q86UL8 600-682)": "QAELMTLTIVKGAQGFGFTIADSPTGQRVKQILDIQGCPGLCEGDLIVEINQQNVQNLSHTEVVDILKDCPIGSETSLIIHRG"}, "[4]": {"target": "Inadl_6, Q8NI35", "sequence (Q8NI35 1058-1167)": "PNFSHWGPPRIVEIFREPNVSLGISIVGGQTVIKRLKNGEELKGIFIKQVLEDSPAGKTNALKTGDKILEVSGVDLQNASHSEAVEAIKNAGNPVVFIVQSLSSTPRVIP"}, "[5]": {"target": "FRMPD2_1, Q68DX3", "sequence (Q68DX3 770-861)": "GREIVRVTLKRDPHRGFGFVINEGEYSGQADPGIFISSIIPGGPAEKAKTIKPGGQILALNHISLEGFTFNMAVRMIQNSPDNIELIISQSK"}, "[6]": {"target": "T2, NHERF3_3, Q5T2W1", "T2 sequence (Q5T2W1 238-333, limits assumed, looked up)": "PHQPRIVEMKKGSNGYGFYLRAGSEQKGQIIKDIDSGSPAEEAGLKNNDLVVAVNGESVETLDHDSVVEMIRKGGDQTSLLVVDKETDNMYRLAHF"}, "[7]": {"target": "MAGI1_2, Q96QZ7", "sequence (Q96QZ7 456-580)": "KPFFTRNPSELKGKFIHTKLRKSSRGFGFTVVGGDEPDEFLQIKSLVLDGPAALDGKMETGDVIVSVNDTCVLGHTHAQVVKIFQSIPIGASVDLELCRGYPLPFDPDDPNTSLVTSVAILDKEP"}, "[8]": {"target": "Inadl_4, Q8NI35", "sequence (Q8NI35 547-651)": "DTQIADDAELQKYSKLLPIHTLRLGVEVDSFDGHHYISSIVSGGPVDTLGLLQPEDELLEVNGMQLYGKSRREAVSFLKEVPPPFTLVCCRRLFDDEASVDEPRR"}, "[9]": {"target": "NHERF4_4, Q86UT5", "sequence (Q86UT5 464-550)": "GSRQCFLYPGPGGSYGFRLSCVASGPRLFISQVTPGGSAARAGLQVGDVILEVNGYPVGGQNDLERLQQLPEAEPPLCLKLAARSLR"}, "[10]": {"target": "GOPC, Q9HD26"}, "[11]": {"target": "FRMPD2_2, Q68DX3", "sequence (Q68DX3 944-1038)": "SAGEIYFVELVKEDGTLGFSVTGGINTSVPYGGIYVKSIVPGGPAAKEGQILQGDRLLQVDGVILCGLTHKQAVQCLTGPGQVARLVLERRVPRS"}, "[12]": {"target": "FRMPD3, Q5JV73", "sequence (Q5JV73 12-100)": "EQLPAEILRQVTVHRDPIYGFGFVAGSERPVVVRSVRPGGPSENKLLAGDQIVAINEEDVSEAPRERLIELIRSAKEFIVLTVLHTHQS"}, "[13]": {"target": "PARD3_3, Q8TEW0", "sequence (Q8TEW0 582-685)": "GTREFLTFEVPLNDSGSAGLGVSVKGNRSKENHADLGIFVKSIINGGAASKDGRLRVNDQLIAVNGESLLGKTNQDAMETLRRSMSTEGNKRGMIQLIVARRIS"}, "[14]": {"target": "DLG4_3, P78352", "sequence (P78352 306-403)": "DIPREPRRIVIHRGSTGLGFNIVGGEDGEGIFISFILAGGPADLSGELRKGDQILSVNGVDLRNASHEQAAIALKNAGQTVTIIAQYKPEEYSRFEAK"}, "[15]": {"target": "T3, RHPN1, Q8TCX5", "T3 sequence (Q8TCX5 508-602, limits assumed, looked up)": "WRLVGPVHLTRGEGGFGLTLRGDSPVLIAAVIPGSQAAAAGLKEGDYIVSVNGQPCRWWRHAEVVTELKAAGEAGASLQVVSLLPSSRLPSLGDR"}, "[16]": {"target": "LNX1_3, Q8TBB1", "sequence (Q8TBB1 500-596)": "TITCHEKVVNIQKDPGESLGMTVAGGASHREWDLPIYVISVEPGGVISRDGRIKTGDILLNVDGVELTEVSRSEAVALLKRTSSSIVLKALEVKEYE"}, "[17]": {"target": "T4, SNTA1, Q13424", "T4 sequence (Q13424 82-180, limits assumed, looked up)": "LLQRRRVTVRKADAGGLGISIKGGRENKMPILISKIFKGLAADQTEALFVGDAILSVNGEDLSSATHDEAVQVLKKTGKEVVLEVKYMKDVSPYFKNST"}, "[18]": {"target": "MAGI3_2, Q5TCQ9", "sequence (Q5TCQ9 398-503)": "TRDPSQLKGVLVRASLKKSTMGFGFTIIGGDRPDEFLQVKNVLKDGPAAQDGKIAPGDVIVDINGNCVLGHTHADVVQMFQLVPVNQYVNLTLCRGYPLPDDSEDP"}, "[19]": {"target": "GORASP1, Q9BQQ3", "sequence (Q9BQQ3 1-208)": "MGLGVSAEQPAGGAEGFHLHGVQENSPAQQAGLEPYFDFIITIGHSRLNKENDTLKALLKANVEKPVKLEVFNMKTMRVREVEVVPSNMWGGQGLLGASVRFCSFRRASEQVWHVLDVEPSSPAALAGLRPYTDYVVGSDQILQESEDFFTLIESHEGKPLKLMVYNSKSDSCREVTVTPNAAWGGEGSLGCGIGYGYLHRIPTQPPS"}, "[20]": {"target": "T5, LIN7C, Q9NUP9", "T5 sequence (Q9NUP9 88-185, limits assumed, looked up)": "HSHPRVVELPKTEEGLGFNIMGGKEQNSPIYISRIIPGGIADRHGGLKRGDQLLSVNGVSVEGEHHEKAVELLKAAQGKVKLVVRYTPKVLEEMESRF"}, "[21]": {"target": "T6, HTRA3, P83110", "T6 sequence (P83110 354-453, limits assumed, looked up)": "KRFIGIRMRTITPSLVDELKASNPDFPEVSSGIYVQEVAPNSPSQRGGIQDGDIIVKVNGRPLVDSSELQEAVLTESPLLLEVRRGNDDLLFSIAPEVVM"}, "[22]": {"target": "Inadl_1, Q8NI35", "sequence (Q8NI35 113-229)": "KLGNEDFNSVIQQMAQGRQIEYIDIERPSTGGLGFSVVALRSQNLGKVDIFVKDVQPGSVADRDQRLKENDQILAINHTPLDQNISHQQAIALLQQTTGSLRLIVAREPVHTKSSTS"}, "[23]": {"target": "T7, LIN7B, Q9HAP6", "T7 sequence (Q9HAP6 88-185, limits assumed, looked up)": "T5 sequence (Q9NUP9 88-185, limits assumed, looked up) with S2A, E13D, I35V, I40V, H65Q, K79S, K89R, S96A"}, "[24]": {"target": "Inadl_10, Q8NI35", "sequence (Q8NI35 1673-1763)": "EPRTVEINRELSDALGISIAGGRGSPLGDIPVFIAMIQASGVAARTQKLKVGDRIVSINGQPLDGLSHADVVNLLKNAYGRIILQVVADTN"}, "[25]": {"target": "DLG2_2, Q15700", "sequence (Q15700 189-283)": "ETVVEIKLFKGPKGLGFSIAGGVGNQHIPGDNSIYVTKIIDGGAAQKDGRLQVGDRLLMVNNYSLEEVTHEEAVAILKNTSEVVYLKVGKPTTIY"}, "[26]": {"target": "DLG1_1, Q12959"}, "[27]": {"target": "T8, DLG3_3, Q92796", "T8 sequence (Q92796 374-475, limits assumed, looked up)": "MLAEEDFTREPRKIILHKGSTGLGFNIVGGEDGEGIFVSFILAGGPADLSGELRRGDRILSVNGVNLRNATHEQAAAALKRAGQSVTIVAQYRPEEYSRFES"}, "[28]": {"target": "Inadl_8, Q8NI35", "sequence (Q8NI35 1425-1530)": "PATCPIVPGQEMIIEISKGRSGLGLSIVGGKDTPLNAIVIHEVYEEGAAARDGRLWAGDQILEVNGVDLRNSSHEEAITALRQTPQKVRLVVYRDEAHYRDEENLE"}, "[29]": {"target": "LNX1_2, Q8TBB1", "sequence (Q8TBB1 371-470)": "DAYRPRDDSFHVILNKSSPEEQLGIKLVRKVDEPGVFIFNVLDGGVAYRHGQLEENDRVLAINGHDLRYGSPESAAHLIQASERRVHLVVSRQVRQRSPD"}, "[30]": {"target": "MAST2, Q6P0Q8", "sequence (Q6P0Q8 1099-1202)": "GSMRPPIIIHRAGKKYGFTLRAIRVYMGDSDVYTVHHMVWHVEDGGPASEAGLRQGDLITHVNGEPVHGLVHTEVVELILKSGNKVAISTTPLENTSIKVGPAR"}, "[31]": {"target": "GRIP2_3, Q9C0E4", "sequence (Q9C0E4 238-339)": "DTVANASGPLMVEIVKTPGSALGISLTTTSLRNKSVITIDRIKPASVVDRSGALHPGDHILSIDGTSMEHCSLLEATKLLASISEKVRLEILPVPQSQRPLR"}},
  "note": "Positions count from the first letter of the chain named.",
  "data": [
    {"binder": "B1", "values": [
      {"measurement": "pKd", "setting": "[1]", "value": 4.15},
      {"measurement": "pKd", "setting": "[2]", "value": 4.63},
      {"measurement": "pKd", "setting": "[3]", "value": 3.61},
      {"measurement": "pKd", "setting": "[4]", "value": "below the threshold"},
      {"measurement": "pKd", "setting": "[5]", "value": 3.93},
      {"measurement": "pKd", "setting": "[6]", "value": "below the threshold"},
      {"measurement": "pKd", "setting": "[7]", "value": 5.05},
      {"measurement": "pKd", "setting": "[8]", "value": "below the threshold"},
      {"measurement": "pKd", "setting": "[9]", "value": 3.88},
      {"measurement": "pKd", "setting": "[10]", "value": 4},
      {"measurement": "pKd", "setting": "[11]", "value": 3.7},
      {"measurement": "pKd", "setting": "[12]", "value": "below the threshold"},
      {"measurement": "pKd", "setting": "[13]", "value": "below the threshold"},
      {"measurement": "pKd", "setting": "[14]", "value": 4.43},
      {"measurement": "pKd", "setting": "[15]", "value": 3.79},
      {"measurement": "pKd", "setting": "[16]", "value": "below the threshold"},
      {"measurement": "pKd", "setting": "[17]", "value": 3.71},
      {"measurement": "pKd", "setting": "[18]", "value": 5.01},
      {"measurement": "pKd", "setting": "[19]", "value": "below the threshold"},
      {"measurement": "pKd", "setting": "[20]", "value": "below the threshold"},
      {"measurement": "pKd", "setting": "[21]", "value": "below the threshold"},
      {"measurement": "pKd", "setting": "[22]", "value": "below the threshold"},
      {"measurement": "pKd", "setting": "[23]", "value": "below the threshold"},
      {"measurement": "pKd", "setting": "[24]", "value": "below the threshold"},
      {"measurement": "pKd", "setting": "[25]", "value": 4.66},
      {"measurement": "pKd", "setting": "[26]", "value": 4.39},
      {"measurement": "pKd", "setting": "[27]", "value": 4.4},
      {"measurement": "pKd", "setting": "[28]", "value": 3.87},
      {"measurement": "pKd", "setting": "[29]", "value": "below the threshold"},
      {"measurement": "pKd", "setting": "[30]", "value": 5.35},
      {"measurement": "pKd", "setting": "[31]", "value": "below the threshold"}
    ]}
  ]
}
